Measurements as given in publication PMC5916898.
Each block holds one substance with its values, some of them ahead of it.

Columns and labels:
BAZ1A (human (HeLa)) = experiment: pull-down TMT-MS titration; details: apparent, Pull-down: 150 mM NaCl (or LiCl), 50 mM Tris pH 8, 0.25% NP-40, 1 mM TCEP, protease inhibitors, 4 C, 2 h, EMSA with lysate in same buffer, RT 15 min, FP in …
BAZ1B (human (HeLa)) = experiment: pull-down TMT-MS titration; details: apparent, Pull-down: 150 mM NaCl (or LiCl), 50 mM Tris pH 8, 0.25% NP-40, 1 mM TCEP, protease inhibitors, 4 C, 2 h, EMSA with lysate in same buffer, RT 15 min, FP in …
BPTF (human (HeLa)) = experiment: pull-down TMT-MS titration; details: apparent, Pull-down: 150 mM NaCl (or LiCl), 50 mM Tris pH 8, 0.25% NP-40, 1 mM TCEP, protease inhibitors, 4 C, 2 h, EMSA with lysate in same buffer, RT 15 min, FP in …
SMARCA2 (human (HeLa)) = experiment: pull-down TMT-MS titration; details: apparent, Pull-down: 150 mM NaCl (or LiCl), 50 mM Tris pH 8, 0.25% NP-40, 1 mM TCEP, protease inhibitors, 4 C, 2 h, EMSA with lysate in same buffer, RT 15 min, FP in …
SMARCA4 (human (HeLa)) = SMARCA4 (human (HeLa)) (UniProt P51532); experiment: pull-down TMT-MS titration; details: apparent, Pull-down: 150 mM NaCl (or LiCl), 50 mM Tris pH 8, 0.25% NP-40, 1 mM TCEP, protease inhibitors, 4 C, 2 h, EMSA with lysate in same buffer, RT 15 min, FP in …
Chain of SMARCA4 (human (HeLa)) (P51532 whole entry): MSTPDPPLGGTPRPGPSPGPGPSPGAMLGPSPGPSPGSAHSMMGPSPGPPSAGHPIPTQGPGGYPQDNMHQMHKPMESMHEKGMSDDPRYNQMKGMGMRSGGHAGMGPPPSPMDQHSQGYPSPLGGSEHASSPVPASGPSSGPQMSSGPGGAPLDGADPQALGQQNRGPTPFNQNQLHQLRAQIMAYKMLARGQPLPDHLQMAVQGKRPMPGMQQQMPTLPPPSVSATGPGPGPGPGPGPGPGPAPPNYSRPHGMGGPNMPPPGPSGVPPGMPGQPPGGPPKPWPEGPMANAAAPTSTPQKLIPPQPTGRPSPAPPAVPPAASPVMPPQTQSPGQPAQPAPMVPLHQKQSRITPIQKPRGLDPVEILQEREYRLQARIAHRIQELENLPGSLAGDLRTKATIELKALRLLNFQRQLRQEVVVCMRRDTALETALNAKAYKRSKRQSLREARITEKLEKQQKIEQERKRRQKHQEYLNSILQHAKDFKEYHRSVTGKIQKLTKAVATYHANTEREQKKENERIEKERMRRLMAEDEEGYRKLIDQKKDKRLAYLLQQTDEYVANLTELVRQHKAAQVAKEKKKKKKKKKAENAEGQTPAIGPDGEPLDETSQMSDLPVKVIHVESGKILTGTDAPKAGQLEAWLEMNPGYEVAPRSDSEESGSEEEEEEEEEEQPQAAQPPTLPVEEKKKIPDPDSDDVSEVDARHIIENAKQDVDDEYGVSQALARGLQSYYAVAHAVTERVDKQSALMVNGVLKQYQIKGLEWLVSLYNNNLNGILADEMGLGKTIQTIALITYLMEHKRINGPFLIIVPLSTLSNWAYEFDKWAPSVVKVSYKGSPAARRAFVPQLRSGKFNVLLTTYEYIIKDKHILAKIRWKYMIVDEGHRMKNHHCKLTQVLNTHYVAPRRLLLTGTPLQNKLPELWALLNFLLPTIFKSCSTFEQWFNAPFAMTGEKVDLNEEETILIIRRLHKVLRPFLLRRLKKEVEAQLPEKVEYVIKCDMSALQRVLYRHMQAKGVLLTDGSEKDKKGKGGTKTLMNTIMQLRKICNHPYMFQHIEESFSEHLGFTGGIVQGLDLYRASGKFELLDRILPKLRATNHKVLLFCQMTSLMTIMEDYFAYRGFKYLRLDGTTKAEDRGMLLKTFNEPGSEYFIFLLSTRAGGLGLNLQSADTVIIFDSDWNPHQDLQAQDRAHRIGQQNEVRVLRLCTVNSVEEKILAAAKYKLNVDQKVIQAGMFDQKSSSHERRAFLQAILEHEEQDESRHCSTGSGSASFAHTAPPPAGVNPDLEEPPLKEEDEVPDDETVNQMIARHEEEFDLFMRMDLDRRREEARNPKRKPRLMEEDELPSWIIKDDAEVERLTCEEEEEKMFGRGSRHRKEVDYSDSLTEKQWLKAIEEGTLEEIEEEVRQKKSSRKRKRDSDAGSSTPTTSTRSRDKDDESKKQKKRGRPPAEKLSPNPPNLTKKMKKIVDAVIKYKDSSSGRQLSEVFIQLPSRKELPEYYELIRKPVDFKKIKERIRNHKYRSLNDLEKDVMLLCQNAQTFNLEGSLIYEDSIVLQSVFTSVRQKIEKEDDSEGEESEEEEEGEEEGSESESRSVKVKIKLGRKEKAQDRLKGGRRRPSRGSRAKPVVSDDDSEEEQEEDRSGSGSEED

SMARCA5 (human (HeLa)) = SMARCA5 (human (HeLa)) (UniProt O60264); experiment: pull-down TMT-MS titration; details: apparent, Pull-down: 150 mM NaCl (or LiCl), 50 mM Tris pH 8, 0.25% NP-40, 1 mM TCEP, protease inhibitors, 4 C, 2 h, EMSA with lysate in same buffer, RT 15 min, FP in …
Chain of SMARCA5 (human (HeLa)) (O60264 2-1052): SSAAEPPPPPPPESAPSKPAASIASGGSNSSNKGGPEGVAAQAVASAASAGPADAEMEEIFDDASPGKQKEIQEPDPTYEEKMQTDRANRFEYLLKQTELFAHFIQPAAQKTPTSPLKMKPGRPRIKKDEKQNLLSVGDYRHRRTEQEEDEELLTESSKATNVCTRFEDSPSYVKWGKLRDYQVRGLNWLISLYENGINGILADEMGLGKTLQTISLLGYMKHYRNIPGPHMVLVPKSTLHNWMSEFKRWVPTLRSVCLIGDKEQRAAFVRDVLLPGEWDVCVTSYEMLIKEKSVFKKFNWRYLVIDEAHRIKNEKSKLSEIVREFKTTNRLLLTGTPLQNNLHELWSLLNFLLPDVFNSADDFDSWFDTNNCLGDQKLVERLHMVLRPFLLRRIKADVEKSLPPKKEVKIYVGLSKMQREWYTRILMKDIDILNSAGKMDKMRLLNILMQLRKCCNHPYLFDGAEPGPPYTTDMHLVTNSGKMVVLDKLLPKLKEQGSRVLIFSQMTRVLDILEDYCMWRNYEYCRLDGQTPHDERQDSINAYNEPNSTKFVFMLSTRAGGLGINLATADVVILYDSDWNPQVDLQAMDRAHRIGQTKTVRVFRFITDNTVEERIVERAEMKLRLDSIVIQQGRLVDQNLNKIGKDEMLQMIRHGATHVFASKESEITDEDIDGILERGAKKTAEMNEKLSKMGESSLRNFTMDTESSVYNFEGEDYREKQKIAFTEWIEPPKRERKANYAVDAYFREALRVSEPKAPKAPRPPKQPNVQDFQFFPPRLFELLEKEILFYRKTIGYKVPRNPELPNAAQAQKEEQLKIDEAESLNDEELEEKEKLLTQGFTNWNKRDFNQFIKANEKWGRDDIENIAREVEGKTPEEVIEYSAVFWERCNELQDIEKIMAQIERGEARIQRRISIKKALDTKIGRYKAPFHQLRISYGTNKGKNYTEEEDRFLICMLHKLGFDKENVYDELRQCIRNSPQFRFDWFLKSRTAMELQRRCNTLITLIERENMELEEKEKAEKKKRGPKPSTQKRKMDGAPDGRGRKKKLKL

[1] = molecular target: H3K9AcK14Ac modified di-nucleosome (human) (UniProt P68431); experiment: affinity purification with mass spectrometry; titration series of ten concentrations of biotinylated recombinant di-nucleosome on streptavidin beads; 100 ug HeLa nuclear lysate per pulldown in PBB (150 mM NaCl, 50 mM Tris pH 8, 0.25% NP-40, 1 mM TCEP), 2 h at 4 °C; 10-plex TMT, SPS-MS3; apparent Kd from a Hill-like fit, triplicate, r^2 > 0.9
PHF10 (human (HeLa)) = experiment: pull-down TMT-MS titration; details: apparent; histone H3K9ac K14ac; Pull-down: 150 mM NaCl (or LiCl), 50 mM Tris pH 8, 0.25% NP-40, 1 mM TCEP, protease inhibitors, 4 C, 2 h; EMSA with lysate in same buffer, RT 15 min; FP in …
GST-KLF4-ZF [2] = molecular target: GST-KLF4-ZF (UniProt O43474); experiment: fluorescence polarization; details: Pull-down: 150 mM NaCl (or LiCl), 50 mM Tris pH 8, 0.25% NP-40, 1 mM TCEP, protease inhibitors, 4 C, 2 h; EMSA with lysate in same buffer, RT 15 min; FP in …
Chain of GST-KLF4-ZF (O43474 whole entry): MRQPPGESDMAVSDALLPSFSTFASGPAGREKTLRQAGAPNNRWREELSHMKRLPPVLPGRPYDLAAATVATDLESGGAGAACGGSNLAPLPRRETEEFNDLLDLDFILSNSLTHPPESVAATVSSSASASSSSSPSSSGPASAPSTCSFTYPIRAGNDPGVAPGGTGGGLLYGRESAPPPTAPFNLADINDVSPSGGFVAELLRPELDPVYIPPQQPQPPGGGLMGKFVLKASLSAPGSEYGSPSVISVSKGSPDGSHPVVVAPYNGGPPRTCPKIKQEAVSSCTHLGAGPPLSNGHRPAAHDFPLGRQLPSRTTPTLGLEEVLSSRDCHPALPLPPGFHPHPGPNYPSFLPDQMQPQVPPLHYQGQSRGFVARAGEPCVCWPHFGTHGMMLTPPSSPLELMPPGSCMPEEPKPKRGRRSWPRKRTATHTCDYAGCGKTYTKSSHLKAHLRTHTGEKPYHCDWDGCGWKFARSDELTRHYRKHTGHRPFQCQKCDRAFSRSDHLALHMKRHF

GST-KLF4-ZF [3] = molecular target: GST-KLF4-ZF (UniProt O43474); experiment: fluorescence intensity (de-quenching); details: Pull-down: 150 mM NaCl (or LiCl), 50 mM Tris pH 8, 0.25% NP-40, 1 mM TCEP, protease inhibitors, 4 C, 2 h; EMSA with lysate in same buffer, RT 15 min; FP in …
C17orf49 (human (HeLa)) = experiment: pull-down TMT-MS titration; details: apparent; histone H3K4me3; Pull-down: 150 mM NaCl (or LiCl), 50 mM Tris pH 8, 0.25% NP-40, 1 mM TCEP, protease inhibitors, 4 C, 2 h; EMSA with lysate in same buffer, RT 15 min; FP in …

Chain of PHF10 (Q8WUB8 whole entry): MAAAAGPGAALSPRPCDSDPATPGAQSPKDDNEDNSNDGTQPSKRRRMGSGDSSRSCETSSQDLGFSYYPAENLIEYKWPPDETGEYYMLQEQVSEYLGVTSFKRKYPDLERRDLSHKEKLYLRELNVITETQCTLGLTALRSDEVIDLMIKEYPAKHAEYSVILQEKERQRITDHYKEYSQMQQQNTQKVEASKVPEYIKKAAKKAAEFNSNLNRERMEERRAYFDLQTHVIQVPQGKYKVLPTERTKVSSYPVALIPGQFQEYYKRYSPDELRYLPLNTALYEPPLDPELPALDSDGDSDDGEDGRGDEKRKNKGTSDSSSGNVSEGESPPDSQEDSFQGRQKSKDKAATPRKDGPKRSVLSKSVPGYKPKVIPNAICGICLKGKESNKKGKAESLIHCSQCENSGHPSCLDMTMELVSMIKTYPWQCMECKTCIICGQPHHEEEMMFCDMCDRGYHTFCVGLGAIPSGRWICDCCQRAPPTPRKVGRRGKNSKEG

Substance: unmodified H3 di-nucleosome
Kd (BAZ1A (human (HeLa))): 151 nM
Kd (BAZ1B (human (HeLa))): 122 nM
Kd (BPTF (human (HeLa))): 53.2 nM
Kd (SMARCA2 (human (HeLa))): 162 nM
Kd (SMARCA4 (human (HeLa))): 174 nM
Kd (SMARCA5 (human (HeLa))): 102 nM

Kd [1]: 35 nM
Substance: PHF10 (from UniProt Q8WUB8 1-498) (natural protein)

Substance: H3K9AcK14Ac di-nucleosome
Kd (BAZ1A (human (HeLa)); histone H3K9ac K14ac): 114 nM
Kd (BAZ1B (human (HeLa)); histone H3K9ac K14ac): 15 nM
Kd (BPTF (human (HeLa)); histone H3K9ac K14ac): 27.9 nM
Kd (PHF10 (human (HeLa))): 35 nM
Kd (SMARCA2 (human (HeLa)); histone H3K9ac K14ac): 35.9 nM
Kd (SMARCA4 (human (HeLa)); histone H3K9ac K14ac): 68.7 nM
Kd (SMARCA5 (human (HeLa)); histone H3K9ac K14ac): 52.6 nM

Substance: GAGAGCCCCGCCCCCTGGCT (double strand) [SP/KLF wild-type Cy5]
Kd (GST-KLF4-ZF [2]): 21.8 nM
Kd (GST-KLF4-ZF [3]): 20.2 nM

Substance: H3K4me3 di-nucleosome
Kd (BAZ1A (human (HeLa)); histone H3K4me3): 100 nM
Kd (BAZ1B (human (HeLa)); histone H3K4me3): 90.6 nM
Kd (BPTF (human (HeLa)); histone H3K4me3): 54 nM
Kd (C17orf49 (human (HeLa))): 68.7 nM
Kd (SMARCA2 (human (HeLa)); histone H3K4me3): 51.8 nM
Kd (SMARCA4 (human (HeLa)); histone H3K4me3): 123 nM
Kd (SMARCA5 (human (HeLa)); histone H3K4me3): 82.4 nM
